This series addresses T1, TbTRF Myb domain (Trypanosoma brucei, UniProt Q4VHG6 281-382).
T1 sequence: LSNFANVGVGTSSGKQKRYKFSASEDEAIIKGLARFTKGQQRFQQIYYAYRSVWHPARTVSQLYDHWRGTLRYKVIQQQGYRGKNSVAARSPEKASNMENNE
Nature of the series: ITC.

The values below come from publication PMC4227783.

B1: regular 13-mer telomeric oligo (dsDNA)
DNA 1: GGTTAGGGTTAGG
DNA 2: CCTAACCCTAACC
Turning to B1, the binding result is “binds”.
